Laboratory results as given in publication PMC3742443, “A Bacteriophage Tailspike Domain Promotes Self-Cleavage of a Human Membrane-Bound Transcription Factor, the Myelin Regulatory Factor MYRF” (PLoS Biology, 2013).

Target: the molecule itself
Experiment: SEC; Superdex 200 10/300 GL; protein dialysed in 20 mM HEPES pH 7.5, 50 mM NaCl, 10 mM β-mercaptoethanol, 10% glycerol, about 2 mg/ml; size by comparison with a standard curve

B1: StrepII-MYRF-319:577, the N-terminal fragment from the auto-processing of StrepII-MYRF-319:708-10xHis (domain or fragment, human, UniProt Q9Y2G1-2 319-577, looked up)
chain: PSPGLLQDSDSLSGSYLDPNYQSIKWQPHQQNKWATLYDANYKELPMLTYRVDADKGFNFSVGDDAFVCQKKNHFQVTVYIGMLGEPKYVKTPEGLKPLDCFYLKLHGVKLEALNQSINIEQSQSDRSKRPFNPVTVNLPPEQVTKVTVGRLHFSETTANNMRKKGKPNPDQRYFMLVVALQAHAQNQNYTLAAQISERIIVRASNPGQFESDSDVLWQRAQVPDTVFHHGRVGINTDRPDEALVVHGNVKVMGSLMHP
notes: Myelin regulatory factor MYRF (C11orf9), human, 1111-amino-acid-long isoform; numbers count on: the 1111-amino-acid isoform (NP_037411); Cloned in pET52b between BamHI and SacI; The C-terminal 10xHis stays on the other cleavage product; also called N-terminal fragment of MYRF-319:708; source: E. coli BL21 Star (DE3) pLysS, cut product of StrepII-MYRF-319:708-10xHis, purified (Ni-NTA flow-through, …)
Which “stoichiometry N” value does the source give for B1 here?
Its value is 3.
